Source: the supplement of paper PMC9112550, “Optimization of the antimicrobial peptide Bac7 by deep mutational scanning” (BMC Biology, 2022)

Tested on: Escherichia coli TOP10
Experiment: shrunken log2 fold change of peptide-encoding DNA abundance (4.5 h post-induction vs induction); higher = less antimicrobial activity (less host growth inhibition)
Conditions: time post-induction: 4.5 h; library: site-saturation at positions 5, 18, 19, 20
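Note: peptides expressed intracellularly from a pBAD plasmid library in pooled LB shake-flask culture, induced with 0.3% L-arabinose, DNA abundance read by NGS, three biological replicates, DESeq2 with apeglm shrinkage.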

Sequence | shrunken log2 fold change
RRIRFRPPRLPRPRPRPINKPRP | -0.582
RRIRMRPPRLPRPRPRPMLGPRP | 0.141
RRIRLRPPRLPRPRPRPMKQPRP | 0.132
RRIRRRPPRLPRPRPRPETVPRP | -0.11
RRIRMRPPRLPRPRPRPFGDPRP | 0.0178
RRIRIRPPRLPRPRPRPWICPRP | -0.132
RRIRPRPPRLPRPRPRPIVAPRP | 0.133
RRIRHRPPRLPRPRPRPFLHPRP | -0.449
RRIRPRPPRLPRPRPRPHSKPRP | -0.14
RRIRVRPPRLPRPRPRPTALPRP | 0.388
RRIRGRPPRLPRPRPRPQVEPRP | -0.0312
RRIRLRPPRLPRPRPRPEEPPRP | 0.0426
RRIRVRPPRLPRPRPRPIFIPRP | -0.328
RRIRGRPPRLPRPRPRPVVMPRP | 0.237
RRIRDRPPRLPRPRPRPVWRPRP | 0.0883
RRIRNRPPRLPRPRPRPRMDPRP | -0.104
RRIRLRPPRLPRPRPRPVVDPRP | 0.117
RRIRKRPPRLPRPRPRPCVNPRP | 0.0687
RRIRSRPPRLPRPRPRPAQMPRP | 0.437
RRIRPRPPRLPRPRPRPKFMPRP | -0.171
RRIRHRPPRLPRPRPRPMSLPRP | -0.00613
RRIRQRPPRLPRPRPRPFWIPRP | -0.0587
RRIRVRPPRLPRPRPRPYRQPRP | -0.479
RRIRRRPPRLPRPRPRPNGLPRP | 0.0125
RRIRYRPPRLPRPRPRPKRNPRP | -0.374

Sequence | shrunken log2 fold change
RRIRSRPPRLPRPRPRPLDDPRP | -0.0921
RRIRIRPPRLPRPRPRPMIDPRP | -1.15
RRIRKRPPRLPRPRPRPGYDPRP | -0.0159
RRIRWRPPRLPRPRPRPIEEPRP | 0.0406
RRIRARPPRLPRPRPRPLHLPRP | 0.0337
RRIRFRPPRLPRPRPRPCHGPRP | -1.45
RRIRSRPPRLPRPRPRPKRHPRP | 0.169
RRIRFRPPRLPRPRPRPYCCPRP | -0.324
RRIRIRPPRLPRPRPRPIFAPRP | -0.0891
RRIRRRPPRLPRPRPRPKLHPRP | 0.167
RRIRMRPPRLPRPRPRPEKTPRP | -0.0246
RRIRWRPPRLPRPRPRPGKTPRP | 0.0109
RRIRCRPPRLPRPRPRPFHDPRP | -0.727
RRIRGRPPRLPRPRPRPFMWPRP | 0.211
RRIRARPPRLPRPRPRPCIEPRP | 0.105
RRIRPRPPRLPRPRPRPYFYPRP | -0.787
RRIRDRPPRLPRPRPRPHQWPRP | 0.031
RRIRERPPRLPRPRPRPNNIPRP | -0.787
RRIRIRPPRLPRPRPRPDAQPRP | -0.0523
RRIRARPPRLPRPRPRPRRMPRP | 0.551
RRIRARPPRLPRPRPRPMCEPRP | 0.797
RRIRQRPPRLPRPRPRPCTWPRP | -0.464
RRIRVRPPRLPRPRPRPMGCPRP | 0.0117
RRIRWRPPRLPRPRPRPNDWPRP | 0.00443
RRIRRRPPRLPRPRPRPAAWPRP | 0.0944

Sequence | shrunken log2 fold change
RRIRFRPPRLPRPRPRPNVNPRP | -0.375
RRIRVRPPRLPRPRPRPMMLPRP | -0.0127
RRIRRRPPRLPRPRPRPRQKPRP | 0.857
RRIRCRPPRLPRPRPRPHMGPRP | -0.29
RRIRPRPPRLPRPRPRPRYPPRP | 0.202
RRIRLRPPRLPRPRPRPVACPRP | 0.0944
RRIRSRPPRLPRPRPRPPFPPRP | 0.256
RRIRWRPPRLPRPRPRPVQVPRP | 0.0298
RRIRNRPPRLPRPRPRPFNAPRP | -0.257
RRIRARPPRLPRPRPRPPRRPRP | 0.923
RRIRIRPPRLPRPRPRPVKPPRP | 0.0254
RRIRNRPPRLPRPRPRPSFAPRP | 0.00213
RRIRERPPRLPRPRPRPCTSPRP | -0.0275
RRIRIRPPRLPRPRPRPHWLPRP | -0.49
RRIRDRPPRLPRPRPRPQVEPRP | 0.0699
RRIRRRPPRLPRPRPRPVFNPRP | 0.056
RRIRRRPPRLPRPRPRPNTPPRP | 0.0411
RRIRKRPPRLPRPRPRPKFSPRP | 0.0774
RRIRTRPPRLPRPRPRPYKIPRP | -0.15
RRIRHRPPRLPRPRPRPFQDPRP | 0.0239
RRIRRRPPRLPRPRPRPWGWPRP | 0.482
RRIRDRPPRLPRPRPRPQCHPRP | -0.0594
RRIRERPPRLPRPRPRPTDKPRP | -0.234
RRIRHRPPRLPRPRPRPFIAPRP | -0.272
RRIRSRPPRLPRPRPRPQKDPRP | -0.323

Sequence | shrunken log2 fold change
RRIRYRPPRLPRPRPRPVWLPRP | -0.0438
RRIRFRPPRLPRPRPRPTCRPRP | -0.0357
RRIRWRPPRLPRPRPRPTQTPRP | 0.551
RRIRCRPPRLPRPRPRPDHCPRP | 0.00334
RRIRYRPPRLPRPRPRPHKTPRP | -0.0572
RRIRFRPPRLPRPRPRPRQCPRP | -0.123
RRIRVRPPRLPRPRPRPGFDPRP | 0.0552
RRIRGRPPRLPRPRPRPQTPPRP | 1.36
RRIRDRPPRLPRPRPRPPVCPRP | 0.452
RRIRFRPPRLPRPRPRPVIIPRP | -0.415
RRIRERPPRLPRPRPRPAEIPRP | -0.207
RRIRERPPRLPRPRPRPNRCPRP | -0.00988
RRIRKRPPRLPRPRPRPKGWPRP | 0.61
RRIRARPPRLPRPRPRPECGPRP | 1.23
RRIRLRPPRLPRPRPRPSEDPRP | -0.256
RRIRGRPPRLPRPRPRPDWMPRP | 0.235
RRIRNRPPRLPRPRPRPETGPRP | 2.57
RRIRWRPPRLPRPRPRPCWAPRP | 0.197
RRIRSRPPRLPRPRPRPWAGPRP | -0.255
RRIRQRPPRLPRPRPRPEMDPRP | 0.231
RRIRVRPPRLPRPRPRPRCSPRP | -0.212
RRIRDRPPRLPRPRPRPQALPRP | 0.214
RRIRSRPPRLPRPRPRPVIDPRP | -0.26
RRIRARPPRLPRPRPRPVRMPRP | 0.618
RRIRRRPPRLPRPRPRPGYWPRP | 0.535

Sequence | shrunken log2 fold change
RRIRARPPRLPRPRPRPPFHPRP | 0.386
RRIRWRPPRLPRPRPRPCSHPRP | -0.264
RRIRIRPPRLPRPRPRPFSNPRP | -0.28
RRIRERPPRLPRPRPRPYMGPRP | -1.01
RRIRLRPPRLPRPRPRPLTGPRP | -0.0782
RRIRTRPPRLPRPRPRPMDQPRP | 0.0595
RRIRFRPPRLPRPRPRPLSPPRP | -0.476
RRIRLRPPRLPRPRPRPDCTPRP | 0.0972
RRIRKRPPRLPRPRPRPVVLPRP | -0.0253
RRIRVRPPRLPRPRPRPGSAPRP | 0.179
RRIRIRPPRLPRPRPRPRGSPRP | -0.189
RRIRVRPPRLPRPRPRPGSPPRP | 0.187
RRIRQRPPRLPRPRPRPVDLPRP | -0.0892
RRIRNRPPRLPRPRPRPDPWPRP | 0.106
RRIRPRPPRLPRPRPRPYMMPRP | -0.309
RRIRCRPPRLPRPRPRPCNPPRP | -0.23
RRIRRRPPRLPRPRPRPECKPRP | -0.0282
RRIRGRPPRLPRPRPRPPMMPRP | 0.626
RRIRNRPPRLPRPRPRPMDFPRP | -0.12
RRIRLRPPRLPRPRPRPRKWPRP | 0.184
RRIRRRPPRLPRPRPRPTKSPRP | 0.226
RRIRLRPPRLPRPRPRPLIRPRP | -0.547
RRIRRRPPRLPRPRPRPPRWPRP | 0.986
RRIRGRPPRLPRPRPRPRIVPRP | 0.824
RRIRQRPPRLPRPRPRPAHYPRP | -0.332

Sequence | shrunken log2 fold change
RRIRIRPPRLPRPRPRPTYDPRP | -1.08
RRIRMRPPRLPRPRPRPRLCPRP | 1.66
RRIRVRPPRLPRPRPRPPYKPRP | -0.371
RRIRCRPPRLPRPRPRPTENPRP | 0.0623
RRIRIRPPRLPRPRPRPQPPPRP | -0.0122
RRIRCRPPRLPRPRPRPVICPRP | -0.241
RRIRIRPPRLPRPRPRPNELPRP | -0.056
RRIRMRPPRLPRPRPRPCLAPRP | 0.215
RRIRARPPRLPRPRPRPPAHPRP | 0.912
RRIRYRPPRLPRPRPRPALAPRP | 0.194
RRIRQRPPRLPRPRPRPHSYPRP | 0.0443
RRIRCRPPRLPRPRPRPAMEPRP | 0.111
RRIRWRPPRLPRPRPRPMKLPRP | -0.198
RRIRQRPPRLPRPRPRPPIYPRP | -0.129
RRIRARPPRLPRPRPRPSYKPRP | -0.305
RRIRQRPPRLPRPRPRPNALPRP | 0.023
RRIRQRPPRLPRPRPRPCPGPRP | -0.0035
RRIRSRPPRLPRPRPRPNYPPRP | -0.195
RRIRYRPPRLPRPRPRPMSEPRP | 0.0461
RRIRVRPPRLPRPRPRPHLIPRP | -0.352
RRIRMRPPRLPRPRPRPTKQPRP | 0.296
RRIRCRPPRLPRPRPRPVVPPRP | -0.168
RRIRQRPPRLPRPRPRPPYTPRP | -0.552
RRIRRRPPRLPRPRPRPQWRPRP | 0.364
RRIRDRPPRLPRPRPRPCNMPRP | -0.225
